Test results taken from publication PMC6638984, “Increased association between Epstein-Barr virus EBNA2 from type 2 strains and the transcriptional repressor BS69 restricts EBNA2 activity” (PLoS Pathogens, 2019).

B2: BS69 coiled-coil MYND domain (BS69_(CC-MYND), amino acids 480-602) (domain or fragment, human, UniProt Q15326 480-602, looked up)
chain: DRMKSDHKRETERVVREALEKLRSEMEEEKRQAVNKAVANMQGEMDRKCKQVKEKCKEEFVEEIKKLATQHKQLISQTKKKQWCYNCEEEAMYHCCWNTSYCSIKCQQEHWHAEHKRTCRRKR
notes: BS69 (ZMYND11), human, amino acids 480-602 comprising the coiled-coil and MYND domains, amplified from pCI-BS69 (full length, isoform 1, 602 amino acids); Dimer by SEC-MALS; Expressed from pET49b+ as a GST-6xHis fusion; the tag was cleaved with 3C protease; also called BS69 CC-MYND domain; ZMYND11; source: E. coli Rosetta 2 (DE3) pLysS, purified (cobalt resin, 3C protease cleavage, GSTrap, …)

Legend:
[1] = target: B2; assay: ITC; EBNA2 polypeptide titrated into 0.1 mM BS69_(CC-MYND) in the cell, 19 x 2.0 μl injections, 25°C, 20 mM Tris-HCl, 100 mM NaCl, 1 mM TCEP, pH 7.5; one-site (one event) model; n calculated for monomeric proteins; conditions: both partners purified
[2] = target: the molecule itself; assay: SEC-MALS; individual polypeptides, 5 mg/ml, Shodex KW403-4F column, 25°C, 20 mM Tris-HCl, 100 mM NaCl, 1 mM TCEP, pH 7.5
[3] = target: B2; assay: ITC; 1 mM EBNA2 peptide titrated into 0.1 mM BS69_(CC-MYND) in the cell, 25°C, 20 mM Tris-HCl, 100 mM NaCl, 1 mM TCEP, pH 7.5; one-site model with n fixed to 1; conditions: both partners purified
[4] = target: T1, BS69 coiled-coil MYND domain (BS69_(CC-MYND), amino acids 480-602) (human, UniProt Q15326-1 480-602); assay: ITC; EBNA2 polypeptide (0.3 or 0.6 mM) titrated into 0.1 mM BS69_(CC-MYND) in the cell, 19 x 2.0 µl injections, 25°C, 20 mM Tris-HCl, 100 mM NaCl, 1 mM TCEP, pH 7.5; one-site (one event) model; n on monomer concentrations; mean of 3 experiments; conditions: both partners purified
T1 construct: cloned into pET49b+; also called ZMYND11 CC-MYND; source: E. coli Rosetta 2 (DE3) pLysS, purified (HisPur cobalt resin, 3C protease cleavage, Superdex 75); not shown: GST, N-terminal, cleaved; His6, N-terminal, cleaved
T1 sequence (looked up): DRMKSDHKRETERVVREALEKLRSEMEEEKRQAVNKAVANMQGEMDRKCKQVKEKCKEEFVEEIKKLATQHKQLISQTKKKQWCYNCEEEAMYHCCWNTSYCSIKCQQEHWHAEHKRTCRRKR

[5] = target: B2; assay: ITC; EBNA2 polypeptide (0.3 mM) titrated into 0.1 mM BS69_(CC-MYND) in the cell, 29 x 1.3 μl injections, 25°C, 20 mM Tris-HCl, 100 mM NaCl, 1 mM TCEP, pH 7.5; two-site (two event) model; conditions: both partners purified

B1: type 2 EBNA2 polypeptide T2 EBNA2_(348-412) (domain or fragment)
chain: SMPQLSPVVSLHQGQGPENSPTPGPSTAGPVCRVTPSATPDISPIHEPESSDSEEPPFLFPSDWY
notes: also called type 2 EBNA2_(348-412); source: E. coli Rosetta 2 (DE3) pLysS, purified (cobalt resin, 3C protease cleavage, Superdex 75); not shown: His6, N-terminal, cleaved
[1]
  Kd: 1210 nM
  dH: -22.5 kcal/mol
  stoichiometry N: 0.33

## B2
[2]
  stoichiometry N: 2

B3: type 2 EBNA2 motif 2 peptide (402-412) (peptide)
peptide: EPPFLFPSDWY
notes: source: synthetic peptide (Peptide Synthetics)
[3]
  Kd: 176 µM

B4: type 2 EBNA2 motif 3 peptide (T2 EBNA2_(412-422)) (peptide)
peptide: YPPTLEPAELD
notes: EBNA2 of type 2 Epstein-Barr virus (AG876), residues 412-422, holding motif 3 (PTLEP 414-418); source: synthetic peptide (Peptide Synthetics)
[3]
  Kd: 219 µM

## EAPILFPDDWY [type 1 EBNA2 motif 2 peptide (435-445)]
[3]
  Kd: 47.7 µM

B5: type 2 EBNA2 polypeptide T2 EBNA2_(348-422) (domain or fragment)
chain: SMPQLSPVVSLHQGQGPENSPTPGPSTAGPVCRVTPSATPDISPIHEPESSDSEEPPFLFPSDWYPPTLEPAELD
notes: EBNA2 of type 2 Epstein-Barr virus (AG876), amino acids 348-422 (motifs 1, 2 and 3), in pET47b+; also called T2 E2_(348-422); source: E. coli Rosetta 2 (DE3) pLysS, purified (HisPur cobalt resin, 3C protease cleavage, Superdex 75); not shown: His6, N-terminal, cleaved
[4]
  Kd: 1010 nM

B6: type 2 EBNA2 polypeptide T2 EBNA2_(348-422) (domain or fragment)
chain: SMPQLSPVVSLHQGQGPENSPTPGPSTAGPVCRVTPSATPDISPIHEPESSDSEEPPFLFPSDWYPPTLEPAELD
notes: Monomer alone by SEC-MALS; also called T2 E2_(348-422); type 2 EBNA2_(348-422); source: E. coli Rosetta 2 (DE3) pLysS, purified (cobalt resin, 3C protease cleavage, Superdex 75); not shown: His6, N-terminal, cleaved
[5]
  dH of the second binding event: -1.59 kcal/mol
[1]
  dH: -53.2 kcal/mol
  stoichiometry N: 0.15

B7: EBNA2_(348-422) SD + m3 mt (domain or fragment)
chain: SMPQLSPVVSLHQGQGPENSPTPGPSTAGPVCRVTPSATPDISPIHEPESSDSEEPPFLFPDDWYPATAEAAELD
notes: EBNA2 of type 2 Epstein-Barr virus (AG876), residues 348-422, with S409D and motif 3 PTLEP mutated to ATAEA; also called type 2 EBNA2 double mutant (S409D, PTLEP to ATAEA); source: E. coli Rosetta 2 (DE3) pLysS, purified (cobalt resin, 3C protease cleavage, Superdex 75); not shown: His6, N-terminal, cleaved
[5]
  binding result: binds

B8: T2 EBNA2_(348-422) m3 T1 (PTLEP to the type 1 sequence PSIDP) (domain or fragment)
chain: SMPQLSPVVSLHQGQGPENSPTPGPSTAGPVCRVTPSATPDISPIHEPESSDSEEPPFLFPSDWYPPSIDPAELD
notes: source: E. coli Rosetta 2 (DE3) pLysS, purified (HisPur cobalt resin, 3C protease cleavage, Superdex 75); not shown: His6, N-terminal, cleaved
[4]
  Kd: 1900 nM
  stoichiometry N: 0.25

B9: EBNA2_(348-422) SD + m3 T1 (domain or fragment)
chain: SMPQLSPVVSLHQGQGPENSPTPGPSTAGPVCRVTPSATPDISPIHEPESSDSEEPPFLFPDDWYPPSIDPAELD
notes: EBNA2 of type 2 Epstein-Barr virus (AG876), residues 348-422, with S409D and motif 3 PTLEP replaced by PSIDP; also called T2 EBNA2_(348-422) SD + m3 T1; type 2 EBNA2 double mutant (S409D, PTLEP to PSIDP); source: E. coli Rosetta 2 (DE3) pLysS, purified (cobalt resin, 3C protease cleavage, Superdex 75); not shown: His6, N-terminal, cleaved
[5]
  binding result: binds

B10: T2 EBNA2_(348-422) SD mutant (S409D) (domain or fragment)
chain: SMPQLSPVVSLHQGQGPENSPTPGPSTAGPVCRVTPSATPDISPIHEPESSDSEEPPFLFPDDWYPPTLEPAELD
notes: EBNA2 of type 2 Epstein-Barr virus (AG876), residues 348-422, serine to aspartate at position 409; text and methods say position 409; source: E. coli Rosetta 2 (DE3) pLysS, purified (cobalt resin, 3C protease cleavage, Superdex 75); not shown: His6, N-terminal, cleaved
[5]
  dH of the second binding event: -7.65 kcal/mol

B11: T2 EBNA2_(348-422) motif 3 mt (PTLEP to ATAEA) (domain or fragment)
chain: SMPQLSPVVSLHQGQGPENSPTPGPSTAGPVCRVTPSATPDISPIHEPESSDSEEPPFLFPSDWYPATAEAAELD
notes: EBNA2 of type 2 Epstein-Barr virus (AG876), residues 348-422, with motif 3 mutated from PTLEP to ATAEA; also called T2 E2 m3 mt; source: E. coli Rosetta 2 (DE3) pLysS, purified (cobalt resin, 3C protease cleavage, Superdex 75); not shown: His6, N-terminal, cleaved
[1]
  dH: -25.7 kcal/mol
  stoichiometry N: 0.3

B12: T2 EBNA2_(348-422) motif 3 mt (PTLEP to ATAEA) (domain or fragment)
chain: SMPQLSPVVSLHQGQGPENSPTPGPSTAGPVCRVTPSATPDISPIHEPESSDSEEPPFLFPSDWYPATAEAAELD
notes: EBNA2 of type 2 Epstein-Barr virus (AG876), amino acids 348-422, motif 3 PTLEP_(414-418) mutated to ATAEA; also called T2 EBNA2348-422 m3 mt; source: E. coli Rosetta 2 (DE3) pLysS, purified (HisPur cobalt resin, 3C protease cleavage, Superdex 75); not shown: His6, N-terminal, cleaved
[4]
  Kd: 590 nM
  stoichiometry N: 0.31
